Experimental data: the supplement of paper PMC12764529
± gives the half width of the 95% confidence interval.

Assay: folding stability dG unfold from trypsin proteolysis; higher = more stable
Outline: (§1)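 Unfolding free energy was derived, per protease or combined, by relating Bayesian-fitted K50 values from sequencing counts to a sequence-predicted unfolded-state K50 and a shared folded-state K50. The underlying digests exposed cysteine-free mini-proteins under 80 residues, in a PA-tagged cDNA display construct, to trypsin and chymotrypsin at 11 threefold-diluted concentrations and to a no-protease condition. A filter kept only designs with AlphaFold2 dimer inter-PAE above 15.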

Row | Sequence | folding stability dG unfold
1 | SAGGMELTIPLPNGKLLKIKVEEVKAEPVLVEFELRDANGKLIDTIPAPSGFKISIRFSVEIYDPNEYSAGG [r13_848_TrMRF] | 2.92 ± 0.091 kcal/mol
2 | SSYTVDVTFTDPSPPKPTHRTLSSIEDAIAEAKAELPPGSVATITVTYPDGSTETITIVGDGVVETKKTASA [r9_482_JUSTAS] | -0.116 ± 0.056 kcal/mol
3 | SAGMVATLYDPNLPPVSVGITETVTVPHPEGFTVTVTLSSDGTATVTPSDGSSTTLPDASEVRVTATPASAG [r5_869_JUSTAS] | 1.31 ± 0.035 kcal/mol
4 | SAGGSAGGSAGELTVTVTVLLEDGTAVKIEARFELDENGNLHLEVKVEVVKLPELSPEDLSAGGSAGGSAGG [r11_728_TrROS_Hall] | 3.4 ± 0.43 kcal/mol
5 | SAGGSAGGMPPVSLPETPVTITDPATGKPRLVTVLAAAPDGTLTVRFPDGSEVTVAGEPLLELESAGGSAGG [r6_435_JUSTAS] | 0.446 ± 0.042 kcal/mol
6 | SAGGDATIVLTDFPEDDPEARIRTARNLYRELKAAGPPLRINILTDTPLGREVADYLESEGIEVGLGSAGGS [r16_450_TrMRF] | -0.828 ± 0.43 kcal/mol
7 | SAGGSAGGSAGGSMLVRFPDKDVLSDGSEAEAERLAEELAAAGRPVELEFISPEEAAARSAGGSAGGSAGGS [r4_131_JUSTAS] | -0.225 ± 0.21 kcal/mol
8 | SMKYVKILLTLKGKPHVITIPSSLSLEEIIDKAIEFAKELGYKDIPKEELKILKVEENPDEEGSSSIIIGSA [r9_1053_TrMRF] | 3.48 ± 0.2 kcal/mol
9 | SAELLEELLKKAREEAEKEGKKVEIHLVLVVEKDENGKVTFTEEEKELIKKLKEAFPDVEIKIEVVELPSAG [r14_636_TrROS_Hall] | 2.83 ± 0.18 kcal/mol
10 | SAGGSAGGSAGGKAKIVDVKIEKEGNTVTIEVKIEVDGKLIATAKVRFTGPDGKLEIEIESAGGSAGGSAGG [r7_133_TrROS_Hall] | 3.25 ± 0.16 kcal/mol
11 | SAGGKKKTIVLEVKVENLEEILKLAKEAAKAGDKVTVKVKLPDGEVYTVTVDVKTGKIVKVEKKKLPKSAGG [r13_873_TrROS_Hall] | 1.98 ± 0.097 kcal/mol
12 | SAGGSAGGSAMKIVKITTTQLPNGTTKVTVTFSDGSTKTVTIPPNQPGKSAEEVAKKVLLESAGGSAGGSAG [r3_368_JUSTAS] | 1.8 ± 0.055 kcal/mol
13 | SAGGSAGGMKYTTTTETSVVEVRTDPKTGTTTRLERVTVTTVDSSGNVLSTTETLEERVDPVPASAGGSAGG [r6_181_JUSTAS] | 2.1 ± 0.059 kcal/mol
14 | SAGMTLKEEEFELPDGSRRIRLTFTSEEELAAKLKELGFEKFNPLSPSESVDVTIPPDGVLSESLPKEGSAG [r5_941_JUSTAS] | 0.651 ± 0.061 kcal/mol
15 | SAKLAEEIAKKILPEVKEVKILKIEVKKDPKSKFKVIKIEMLVKMPKGEKKIKIEIKPGKPKIKIIPLDSAG [r14_397_TrMRF] | 2.16 ± 0.09 kcal/mol
16 | SAGGMKPGEKTIRLLLKLPPGEELTPEQVEELAKRLAEELREKGYEVEVEVVERDGELYVLVEVRFPESAGG [r13_442_TrROS_Hall] | 3.55 ± 0.1 kcal/mol
17 | SAGGSAGGSAGPSYIAVVEFENGERPVYLFPPNTGKLEDIVEELKKKFPSLKKITIYPAPSAGGSAGGSAGG [r11_311_TrMRF] | 3.58 ± 0.17 kcal/mol
18 | SAGSMKTVVRVEKEVDPSTGKITITEEIEDKVYTTTMDLNPETGDATSTVTYPDSTIGTTTVPISSISSSAG [r5_415_JUSTAS] | -0.155 ± 0.024 kcal/mol
19 | SAGMKIEIEAEYDPESGTVTLHIKEEPEPGEPVEVKFPIKFLKDKVEIEAETEEPLDPEEILKKIKEELSAG [r5_478_TrMRF] | -0.161 ± 0.14 kcal/mol
20 | SAGGPPIRIKVELWDPNGKEYTHTFPFGEPLDQILDNASKQFGLPLRVEDIEYDPDGMITITIRIPDSAGGS [r8_285_TrROS] | 1.75 ± 0.036 kcal/mol
21 | SAGMPKPVVTPVTLPVNGALITFTVDPEVPLATFTFDEPDVNAVAEEYAKERAAELEKAGIPTKIVPSSAGG [r19_354_JUSTAS] | 0.3 ± 0.041 kcal/mol

Row | Sequence | folding stability dG unfold
22 | SAGGKVYYIEIPPELLEAFPDLVVEPVEQPEDFVVAPVFLSDKVLLVPIRVFSEDGKELFDFTLTSNPSAGG [r13_129_TrMRF] | 1.18 ± 0.027 kcal/mol
23 | SAWKIWIEFTPGDPGDTYQIRIDPNSPNLEALLKELAQMFKYEVKDAEVEYNPNGSVWVEFKVDELKPPSAG [r14_655_TrROS] | 1.77 ± 0.081 kcal/mol
24 | SAGGSSFTGTVTPVKVDPVNPDLVTVATTLTWPDGTTVPLTRTIPRSVYDSLPENISISVTLSPPSSAGGSA [r2_128_JUSTAS] | -0.0475 ± 0.15 kcal/mol
25 | SAGGSAGGMTTVTYDPSTGVTTVLTPKTDPTSDETSVVTTTVTLPTSPSGGGGTATTTTTTTASSAGGSAGG [r6_952_JUSTAS] | 0.74 ± 0.051 kcal/mol
26 | SAGGSAGGSKEKKTVILRIKIYVKNENGELIEEIEIPLKDLTLEELKELAKKLNVKVEIELLPSAGGSAGGS [r12_398_TrROS_Hall] | 1.69 ± 0.16 kcal/mol
27 | SAGGSAGGSSPPVTVIPLKIPVDPDTTPEEIKEELAAKVPPNSSVKVDTKPGSGTVNVTVTISSAGGSAGGS [r12_12_JUSTAS] | 1.12 ± 0.061 kcal/mol
28 | SAGGSAGGSAGGKKTLVIEFDLEPGGLTAEEIEELLRPYTGKEVRLETHPDGKPVAVVEGSAGGSAGGSAGG [r7_330_TrMRF] | -0.488 ± 0.1 kcal/mol
29 | SAGGSAGMPSVTPVTVQMKGSREEAEAVAEELIEELRAKDPSVKVEAVEFSELPDGTYRVTITVTNSAGGSA [r15_718_JUSTAS] | 3.71 ± 0.12 kcal/mol
30 | SAKYKIIEAKPGKNVVTITVEYTLPNGEKLTKPIPINAINPVIVEVSEDSITIYDPNNGKLITFPAEKLSAG [r14_947_TrMRF] | 2.1 ± 0.12 kcal/mol
31 | SAGGSAGGSAGGSMKYITITETTEEEVLVLYYDPETGEPVREEKVLRTVTKTRTLPPDLKSAGGSAGGSAGG [r7_573_JUSTAS] | -0.236 ± 0.23 kcal/mol
32 | SAGGSAGGSAGGMLTAVFTTPGNVRRLVPFSSEEEARALAEAEGVEVEFLDPAEAARLLSAGGSAGGSAGGS [r10_66_JUSTAS] | -0.569 ± 0.17 kcal/mol
33 | SAGGSMVIPTKVSSLEEAKQVAEEILKKLGRPLTLDDVSFDPEKFKAELKPDTPVVVKVKDPSGVTLGASAG [r5_503_JUSTAS] | 0.457 ± 0.032 kcal/mol
34 | SAGGSAGGSMSTVSTVTHPDGTPLTVTTTPLPDGTVLATYSAPDGTVVATFDVSTGTTVVVPLSAGGSAGGS [r20_159_JUSTAS] | 1.39 ± 0.067 kcal/mol
35 | SAGGMTKTILIYDEETGVLVRIEIKVNPETGEIEEIKIETETLEDGTVKMKITLKDGTEIEVEIKPLPSAGG [r13_515_TrROS_Hall] | 3.45 ± 0.46 kcal/mol
36 | SAGGSAGGSAGGKKTITVTVKINGKTYRVEIKYDEKTKKVTIKIEVNGKKYEFEFELKDSAGGSAGGSAGGS [r10_438_TrROS_Hall] | 4.73 ± 0.96 kcal/mol
37 | SAGGSAGGGFVTIEVEITEVVGKTKDEEGKPHPGDPNDPSGYVKLPPFPVKVPSSPEEYAALLSSAGGSAGG [r6_219_JUSTAS] | 0.551 ± 0.076 kcal/mol
38 | SAGGSAGGSAGSTALVETREFEDGTVVERVEVTLPNGEVLERTVVLTRDEAGNVVEEEVESAGGSAGGSAGG [r11_709_JUSTAS] | 0.224 ± 0.03 kcal/mol
39 | SAGGSAGGSAGGSWLVRIPGHPIIFKGPEDQAEGIARELQKNGKPIEIEIIDPDEMKKFSAGGSAGGSAGGS [r4_131_TrROS] | 0.286 ± 0.12 kcal/mol
40 | SAGGSAGGSAGGSSTAVIRRPETGEEHTFDLPEDATEEDIRARLEAAGFPPGSEIVEIVESAGGSAGGSAGG [r7_70_JUSTAS] | 1.21 ± 0.067 kcal/mol
41 | ADPDVKVEVEFEVLPDGRLRVTAVDPDTGVVVEVEAPVDGAGPVTVRVRVRVFDPETGEVSTFEAEFTLPLS [r1_45_TrMRF] | 3.71 ± 0.12 kcal/mol
42 | SAGGSAGGSAGMKKTVTTSTAPDGTLTTTTTVPTPDSTTTVVTTTTDPTTGTTTTTTTANSAGGSAGGSAGG [r11_107_JUSTAS] | -2 ± 0.54 kcal/mol

Assay: folding stability dG unfold (combined trypsin and chymotrypsin); higher = more stable
Outline: as §1

Row | Sequence | folding stability dG unfold
43 | SAGGMELTIPLPNGKLLKIKVEEVKAEPVLVEFELRDANGKLIDTIPAPSGFKISIRFSVEIYDPNEYSAGG [r13_848_TrMRF] | 3.61 ± 0.077 kcal/mol
44 | SSYTVDVTFTDPSPPKPTHRTLSSIEDAIAEAKAELPPGSVATITVTYPDGSTETITIVGDGVVETKKTASA [r9_482_JUSTAS] | 0.561 ± 0.081 kcal/mol
45 | SAGMVATLYDPNLPPVSVGITETVTVPHPEGFTVTVTLSSDGTATVTPSDGSSTTLPDASEVRVTATPASAG [r5_869_JUSTAS] | 1.1 ± 0.044 kcal/mol
46 | SAGGSAGGSAGELTVTVTVLLEDGTAVKIEARFELDENGNLHLEVKVEVVKLPELSPEDLSAGGSAGGSAGG [r11_728_TrROS_Hall] | 2.74 ± 0.32 kcal/mol
47 | SAGGSAGGMPPVSLPETPVTITDPATGKPRLVTVLAAAPDGTLTVRFPDGSEVTVAGEPLLELESAGGSAGG [r6_435_JUSTAS] | 0.878 ± 0.051 kcal/mol
48 | SAGGDATIVLTDFPEDDPEARIRTARNLYRELKAAGPPLRINILTDTPLGREVADYLESEGIEVGLGSAGGS [r16_450_TrMRF] | -0.33 ± 0.2 kcal/mol
49 | SAGGSAGGSAGGSMLVRFPDKDVLSDGSEAEAERLAEELAAAGRPVELEFISPEEAAARSAGGSAGGSAGGS [r4_131_JUSTAS] | -0.424 ± 0.31 kcal/mol
50 | SMKYVKILLTLKGKPHVITIPSSLSLEEIIDKAIEFAKELGYKDIPKEELKILKVEENPDEEGSSSIIIGSA [r9_1053_TrMRF] | 3.61 ± 0.14 kcal/mol
51 | SAELLEELLKKAREEAEKEGKKVEIHLVLVVEKDENGKVTFTEEEKELIKKLKEAFPDVEIKIEVVELPSAG [r14_636_TrROS_Hall] | 3.28 ± 0.13 kcal/mol
52 | SAGGSAGGSAGGKAKIVDVKIEKEGNTVTIEVKIEVDGKLIATAKVRFTGPDGKLEIEIESAGGSAGGSAGG [r7_133_TrROS_Hall] | 3.15 ± 0.15 kcal/mol
53 | SAGGKKKTIVLEVKVENLEEILKLAKEAAKAGDKVTVKVKLPDGEVYTVTVDVKTGKIVKVEKKKLPKSAGG [r13_873_TrROS_Hall] | 2.81 ± 0.2 kcal/mol
54 | SAGGSAGGSAMKIVKITTTQLPNGTTKVTVTFSDGSTKTVTIPPNQPGKSAEEVAKKVLLESAGGSAGGSAG [r3_368_JUSTAS] | 2.96 ± 0.087 kcal/mol
55 | SAGGSAGGMKYTTTTETSVVEVRTDPKTGTTTRLERVTVTTVDSSGNVLSTTETLEERVDPVPASAGGSAGG [r6_181_JUSTAS] | 2.15 ± 0.039 kcal/mol
56 | SAGMTLKEEEFELPDGSRRIRLTFTSEEELAAKLKELGFEKFNPLSPSESVDVTIPPDGVLSESLPKEGSAG [r5_941_JUSTAS] | 1.42 ± 0.11 kcal/mol
57 | SAKLAEEIAKKILPEVKEVKILKIEVKKDPKSKFKVIKIEMLVKMPKGEKKIKIEIKPGKPKIKIIPLDSAG [r14_397_TrMRF] | 2.67 ± 0.22 kcal/mol
58 | SAGGMKPGEKTIRLLLKLPPGEELTPEQVEELAKRLAEELREKGYEVEVEVVERDGELYVLVEVRFPESAGG [r13_442_TrROS_Hall] | 4.1 ± 0.044 kcal/mol
59 | SAGGSAGGSAGPSYIAVVEFENGERPVYLFPPNTGKLEDIVEELKKKFPSLKKITIYPAPSAGGSAGGSAGG [r11_311_TrMRF] | 3.33 ± 0.087 kcal/mol
60 | SAGSMKTVVRVEKEVDPSTGKITITEEIEDKVYTTTMDLNPETGDATSTVTYPDSTIGTTTVPISSISSSAG [r5_415_JUSTAS] | 0.432 ± 0.067 kcal/mol
61 | SAGMKIEIEAEYDPESGTVTLHIKEEPEPGEPVEVKFPIKFLKDKVEIEAETEEPLDPEEILKKIKEELSAG [r5_478_TrMRF] | 0.513 ± 0.2 kcal/mol
62 | SAGGPPIRIKVELWDPNGKEYTHTFPFGEPLDQILDNASKQFGLPLRVEDIEYDPDGMITITIRIPDSAGGS [r8_285_TrROS] | 1.8 ± 0.1 kcal/mol
63 | SAGMPKPVVTPVTLPVNGALITFTVDPEVPLATFTFDEPDVNAVAEEYAKERAAELEKAGIPTKIVPSSAGG [r19_354_JUSTAS] | 0.662 ± 0.16 kcal/mol
